Earlier results on one substance are cited in PMC4298871.

For the data set, the target named is M6P/IGF-IIR (Homo sapiens) (UniProt P11717). Kind of data set: SPR. On the technique in general: In SPR one partner is held on a chip, and binding of the other changes the refractive index at the surface.
UniProt P11717, sequence (P11717 41-2491): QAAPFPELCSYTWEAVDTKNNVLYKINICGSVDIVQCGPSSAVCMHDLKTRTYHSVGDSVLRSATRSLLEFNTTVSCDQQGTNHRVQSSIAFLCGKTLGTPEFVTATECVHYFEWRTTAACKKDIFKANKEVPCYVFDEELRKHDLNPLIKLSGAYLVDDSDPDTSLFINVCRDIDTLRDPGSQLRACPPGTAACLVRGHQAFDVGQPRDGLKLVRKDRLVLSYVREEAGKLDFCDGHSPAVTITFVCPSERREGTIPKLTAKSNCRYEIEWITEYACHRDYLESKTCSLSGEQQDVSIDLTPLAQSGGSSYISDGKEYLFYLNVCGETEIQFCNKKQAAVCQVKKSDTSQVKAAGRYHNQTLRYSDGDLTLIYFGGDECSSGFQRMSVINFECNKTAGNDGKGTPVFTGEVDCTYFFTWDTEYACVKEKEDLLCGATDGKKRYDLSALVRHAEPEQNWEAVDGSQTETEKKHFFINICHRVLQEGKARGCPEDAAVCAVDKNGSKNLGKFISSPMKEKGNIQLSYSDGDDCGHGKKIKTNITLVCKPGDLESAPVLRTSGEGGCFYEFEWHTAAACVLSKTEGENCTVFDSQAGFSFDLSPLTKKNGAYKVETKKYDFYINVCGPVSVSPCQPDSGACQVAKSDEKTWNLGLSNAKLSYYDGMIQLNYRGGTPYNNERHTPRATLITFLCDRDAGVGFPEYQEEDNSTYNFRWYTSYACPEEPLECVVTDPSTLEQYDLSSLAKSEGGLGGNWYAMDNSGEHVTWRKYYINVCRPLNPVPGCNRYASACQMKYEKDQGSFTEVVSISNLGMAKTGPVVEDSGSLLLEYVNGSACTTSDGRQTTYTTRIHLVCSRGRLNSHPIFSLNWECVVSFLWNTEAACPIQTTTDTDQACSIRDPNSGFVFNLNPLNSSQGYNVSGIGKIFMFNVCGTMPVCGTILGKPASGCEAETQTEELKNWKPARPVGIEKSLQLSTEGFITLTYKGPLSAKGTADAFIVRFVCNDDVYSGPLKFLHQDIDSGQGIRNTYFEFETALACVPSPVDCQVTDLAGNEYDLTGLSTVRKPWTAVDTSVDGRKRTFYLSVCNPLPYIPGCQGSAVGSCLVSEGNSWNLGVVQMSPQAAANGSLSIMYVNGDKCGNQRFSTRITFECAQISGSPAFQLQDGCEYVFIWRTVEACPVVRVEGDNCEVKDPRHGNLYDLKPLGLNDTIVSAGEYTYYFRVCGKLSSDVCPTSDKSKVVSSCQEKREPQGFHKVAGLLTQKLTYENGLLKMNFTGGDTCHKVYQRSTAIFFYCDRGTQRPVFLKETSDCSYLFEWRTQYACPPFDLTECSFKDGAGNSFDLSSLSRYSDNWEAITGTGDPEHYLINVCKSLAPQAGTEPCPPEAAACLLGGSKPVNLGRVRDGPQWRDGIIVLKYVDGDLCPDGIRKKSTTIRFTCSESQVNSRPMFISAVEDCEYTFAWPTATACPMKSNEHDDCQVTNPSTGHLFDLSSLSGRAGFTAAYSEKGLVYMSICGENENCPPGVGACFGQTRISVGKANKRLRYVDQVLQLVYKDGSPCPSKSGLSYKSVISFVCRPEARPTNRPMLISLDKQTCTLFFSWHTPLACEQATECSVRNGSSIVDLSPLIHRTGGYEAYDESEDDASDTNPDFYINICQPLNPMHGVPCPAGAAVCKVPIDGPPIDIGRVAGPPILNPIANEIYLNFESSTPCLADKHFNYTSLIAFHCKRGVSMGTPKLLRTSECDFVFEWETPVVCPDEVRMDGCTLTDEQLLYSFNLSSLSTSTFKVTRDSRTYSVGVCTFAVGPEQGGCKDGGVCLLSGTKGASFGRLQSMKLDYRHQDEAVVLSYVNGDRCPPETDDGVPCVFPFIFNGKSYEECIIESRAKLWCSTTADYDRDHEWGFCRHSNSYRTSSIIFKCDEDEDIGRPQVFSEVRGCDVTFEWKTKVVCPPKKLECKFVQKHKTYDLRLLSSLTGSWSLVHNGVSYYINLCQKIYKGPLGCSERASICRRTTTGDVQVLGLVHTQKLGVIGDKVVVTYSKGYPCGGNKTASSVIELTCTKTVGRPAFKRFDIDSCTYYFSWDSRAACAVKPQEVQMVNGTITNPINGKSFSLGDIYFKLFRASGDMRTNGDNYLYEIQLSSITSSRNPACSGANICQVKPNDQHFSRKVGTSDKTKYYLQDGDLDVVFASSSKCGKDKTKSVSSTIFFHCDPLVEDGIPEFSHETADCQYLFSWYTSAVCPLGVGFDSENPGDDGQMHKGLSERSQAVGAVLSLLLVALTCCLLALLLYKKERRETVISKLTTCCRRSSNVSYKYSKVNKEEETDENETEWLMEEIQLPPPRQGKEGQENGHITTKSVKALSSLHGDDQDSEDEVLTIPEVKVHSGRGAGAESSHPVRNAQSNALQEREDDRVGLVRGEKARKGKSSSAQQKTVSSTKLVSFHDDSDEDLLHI

In the case of DPP-4 (from UniProt P27487), the Kd is 35.9 µM.

For orientation: Kd means the concentration at which binding is half-saturated.
